Results published in patent US6887705B1, “Tyrosine phosphorylated cleavage furrow-associated proteins (PSTPIPs)” (Genentech, Inc., priority 1997, dated 2005).

Experiments:
[1] = molecular target: T1, PTP HSCF with P440 mutated to alanine, HA tagged (UniProt Q61152 1-453); assay: in vitro translated PTP HSCF mutant precipitated with 1 or 10 µg/ml GST PST PIP
T1 construct: range 1-453; also called HSCF P440
T1 sequence (looked up): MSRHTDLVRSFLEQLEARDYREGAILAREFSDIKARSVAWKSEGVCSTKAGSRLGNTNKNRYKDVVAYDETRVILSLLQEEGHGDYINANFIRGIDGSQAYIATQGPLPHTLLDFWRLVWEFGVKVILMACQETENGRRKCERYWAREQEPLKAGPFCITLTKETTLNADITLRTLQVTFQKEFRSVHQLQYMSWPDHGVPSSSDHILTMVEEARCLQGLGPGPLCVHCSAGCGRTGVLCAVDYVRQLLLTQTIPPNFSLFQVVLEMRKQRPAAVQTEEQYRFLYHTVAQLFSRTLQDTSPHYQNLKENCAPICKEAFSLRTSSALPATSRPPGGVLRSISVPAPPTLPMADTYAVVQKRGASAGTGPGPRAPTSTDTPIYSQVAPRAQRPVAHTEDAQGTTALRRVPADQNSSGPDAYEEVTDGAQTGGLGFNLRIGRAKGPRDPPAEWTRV
Experimental: (§1) Multiple bands precipitated with the GST PST PIP fusion protein are apparently C-terminal proteolyzed products of the PTP. Also shown are GST PST PIP precipitations (10 μg/ml) performed on a double mutant of PTP HSCF (R+W) with both residues $R444$ and $W450$ mutated to alanine (bottom panel FIG. 14 A/2). B. COS cells were co-transfected with a 10:1 ratio of plasmids encoding hemagglutinin (HA) tagged PTP HSCF with the illustrated alanine substitutions or a mutant of PTP HSCF deleted for the C-terminal 24 amino acids (PTP $HSCFD24$) and wild type PST PIP with a C-terminal FLAG epitope tag, respectively. Transfected cell lysates were immunoprecipitated with anti-HA monoclonal antibodies and the precipitates were blotted with anti-PST PIP polyclonal antibody to detect the relative amounts of PST PIP complexed with either wild type or different mutant forms of PTP HSCF. Lysates were also immunoprecipitated with anti-HA antibody and blotted with the same antibody to insure equal expression of PTP HSCF. Equal expression of PSTPIP was determined by immunoprecipitating lysates with anti-FLAG monoclonal antibody and blotting with anti-PST PIP polyclonal antibody.
(§2) In vitro binding analyses between various PTP HSCF and PST PIP constructs were performed as previously described (Spencer et al, (1997), supra). Briefly, plasmids were transcribed and translated in vitro using the TnT Rabbit Reticulocyte Lysate System (Promega). Samples were diluted in 50 mM HEPES, pH 7.2, 1% triton X-100, 10% glycerol, 100 mM NaCl, and 2 µg/ml each of leupeptin, pepstatin, aprotinin and PMSF (lysis buffer). Samples were than reacted with GST fusion proteins at various concentrations, and the bound proteins were centrifuged using glutathione-sepharose beads and analyzed on SDS polyacrylamide gels. C-terminally-derived peptide inhibition studies were performed by incubating the GST fusion protein binding reactions in the presence of 10 µg/ml of the indicated peptides. Peptides were produced by FMOC-protected amino acids as previously described (Spencer et al, (1997), supra). In vivo interactions between various forms of PTP HSCF and PST PIP were also performed as previously described (Spencer et al, (1997), supra).

[2] = molecular target: T2, PTP HSCF with R444 mutated to alanine, HA tagged (UniProt Q61152 1-453); assay: as above
T2 construct: range 1-453; also called HSCF R444
T2 sequence (looked up): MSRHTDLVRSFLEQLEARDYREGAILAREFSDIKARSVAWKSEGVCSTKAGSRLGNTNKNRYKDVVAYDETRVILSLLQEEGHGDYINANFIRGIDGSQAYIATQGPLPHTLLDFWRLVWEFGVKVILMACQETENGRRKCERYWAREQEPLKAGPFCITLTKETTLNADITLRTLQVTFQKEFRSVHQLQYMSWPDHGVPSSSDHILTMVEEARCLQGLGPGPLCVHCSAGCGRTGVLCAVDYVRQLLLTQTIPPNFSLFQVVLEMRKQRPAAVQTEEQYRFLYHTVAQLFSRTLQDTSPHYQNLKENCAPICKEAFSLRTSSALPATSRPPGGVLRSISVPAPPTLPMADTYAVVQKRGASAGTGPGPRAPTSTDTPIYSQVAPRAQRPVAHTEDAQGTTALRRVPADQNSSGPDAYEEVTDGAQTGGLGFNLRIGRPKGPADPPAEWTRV
Experimental: as §1, §2

3T3 cells = assay: Overexpression of PSTPIP in transfected 3T3 cells, confocal microscopy; type: cell-based, murine; details: overexpression under cytomegalovirus promoter
Experimental: Rabbit polyclonal antibodies were produced against a GST-PSTPIP fusion protein. The complete PSTPIP-GST fusion protein was purified on GSH-sepharose and injected intramuscularly at 2 sites with 200 μg fusion protein and subcutaneously at multiple sites with a total of 300 μg PSTPIP-GST fusion protein in Complete Freunds Adjuvant. Rabbits were boosted every 3 weeks with 100 μg fusion protein in Incomplete Freunds. 15 ml of rabbit sera was reacted with 0.5 mg PSTPIP-GST-GSH-Sepharose for 3 hours at 4° C. with gentle rotation. The resin was collected by centrifugation and washed with 10 column volumes of PBS. Immunoglobulin was eluted from the affinity matrix with 100 mM acetic acid, 500 mM NaCl, neutralized with NaOH, and then dialyzed overnight with PBS. NIH 3T3 cells were seeded at 100,000 cells per chamber slide and allowed to adhere overnight. The cells were transfected using Lipofectamine™ (2 ug pRK.PIP.FLAG.C/12 ul Lipofectamine in 0.8 ml OPTI-MEM) for 5 hours. The DNA/Lipofectamine™ solution was removed and fresh serum containing medium added. […] Cells were stained with 0.4 μg/ml rabbit anti-PIP or 0.4 μg/ml rabbit IgG and detected with Cy3-corjugated goat anti-rabbit. […]

B1: GST-PSTPIP (GST fusion of full-length PSTPIP, amino acids 2-415) (other)
chain: MAQLQFRDAFWCRDFTAHTGYEVLLQRLLDGRKMCKDVEELLRQRAQAEERYGKELVQIARKAGGQTEMNSLRTSFDSLKQQTENVGSAHIQLALALREELRSLEEFRERQKEQRKKYEAIMDRVQKSKLSLYKKTMESKKAYDQKCRDADDAEQAFERVSANGHQKQVEKSQNKAKQCKESATEAERVYRQNIEQLERARTEWEQEHRTTCEAFQLQEFDRLTILRNALWVHCNQLSMQCVKDDELYEEVRLTLEGCDVEGDINGFIQSKSTGREPPAPVPYQNYYDREVTPLIGSPSIQPSCGVIKRFSGLLHGSPKTTPSAPAASTETLTPTPERNELVYASIEVQATQGNLNSSAQDYRALYDYTAQNSDELDISAGDILAVILEGEDGWWTVERNGQRGFVPGSYLEKL
notes: Made in DH5-alpha bacteria from pGEX4T-2; also called GST-full-length PSTPIP; GST PTP PIP; not shown: glutathione S-transferase encoded by pGEX-4T-2 (Pharmacia)
B1: binds [1]; binds [2].

B2: PSTPIP: murine PST Phosphatase Interacting Protein, 415 residues (SEQ ID NO:1) (protein)
chain: MMAQLQFRDAFWCRDFTAHTGYEVLLQRLLDGRKMCKDVEELLRQRAQAEERYGKELVQIARKAGGQTEMNSLRTSFDSLKQQTENVGSAHIQLALALREELRSLEEFRERQKEQRKKYEAIMDRVQKSKLSLYKKTMESKKAYDQKCRDADDAEQAFERVSANGHQKQVEKSQNKAKQCKESATEAERVYRQNIEQLERARTEWEQEHRTTCEAFQLQEFDRLTILRNALWVHCNQLSMQCVKDDELYEEVRLTLEGCDVEGDINGFIQSKSTGREPPAPVPYQNYYDREVTPLIGSPSIQPSCGVIKRFSGLLHGSPKTTPSAPAASTETLTPTPERNELVYASIEVQATQGNLNSSAQDYRALYDYTAQNSDELDISAGDILAVILEGEDGWWTVERNGQRGFVPGSYLEKL
modifications: Mus Musculus
For B2, the “cell morphology on overexpression” value (3T3 cells) was “induced a remarkable morphological change in a high percentage of cells”.
